Here are results for 2 molecules from patent US20200024360A1 (Janssen / Centocor, published 2020).

The target of experiment [1] is T1, recombinant chimpanzee PSMA extracellular domain (ECD) protein (Pan troglodytes, UniProt Q04609 44-750 (human entry)).
T1 construct: also called Chimp PSMA ECD; PSMG8
T1 chain: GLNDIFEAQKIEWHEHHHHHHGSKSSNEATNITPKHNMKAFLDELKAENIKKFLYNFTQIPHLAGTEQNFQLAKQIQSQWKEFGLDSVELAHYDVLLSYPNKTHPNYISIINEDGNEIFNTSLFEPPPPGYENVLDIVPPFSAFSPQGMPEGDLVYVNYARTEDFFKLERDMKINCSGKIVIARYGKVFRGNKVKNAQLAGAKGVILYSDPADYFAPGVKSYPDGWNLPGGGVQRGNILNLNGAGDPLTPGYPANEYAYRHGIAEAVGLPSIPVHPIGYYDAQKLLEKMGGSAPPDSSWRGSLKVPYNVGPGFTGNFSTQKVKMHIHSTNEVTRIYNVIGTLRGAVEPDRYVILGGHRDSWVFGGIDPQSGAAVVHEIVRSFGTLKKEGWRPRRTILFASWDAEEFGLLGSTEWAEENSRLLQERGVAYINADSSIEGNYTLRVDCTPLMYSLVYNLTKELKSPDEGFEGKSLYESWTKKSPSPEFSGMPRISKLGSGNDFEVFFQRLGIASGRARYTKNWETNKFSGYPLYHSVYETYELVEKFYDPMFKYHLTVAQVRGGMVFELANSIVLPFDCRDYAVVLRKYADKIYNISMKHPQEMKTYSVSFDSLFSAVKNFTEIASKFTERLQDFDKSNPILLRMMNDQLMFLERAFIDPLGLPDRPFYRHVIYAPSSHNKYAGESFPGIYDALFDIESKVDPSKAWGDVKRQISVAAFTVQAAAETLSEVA
The experiment in a line: SPR ProteOn, bsAb captured by anti-Fc. The method, then: The interactions of PSMA×CD3 bispecific mAbs with target (recombinant Chimp, PSMA) were studied by Surface Plasmon Resonance (SPR) using a ProteOn XPR36 system (BioRad). […] Approximately 4400 RU (response units) of anti-Human IgG Fc antibodies were immobilized. The kinetic experiments were performed at 25° C. in running buffer (DPBS+0.03% P20+100 μg/ml BSA). […] The association phase was monitored for 3 minutes at 50 μL/min, then followed by 15 minutes of buffer flow (dissociation phase). The chip surface was regenerated with two 18 second pulses of 100 mM Phosphoric acid (H₃PO₄, Sigma, cat #7961) at 100 μL/min.
The collected data were processed using ProteOn Manager software. First, the data was corrected for background using inter-spots. Then, double reference subtraction of the data was performed by using the buffer injection for analyte injections. The kinetic analysis of the data was performed using a Langmuir 1:1 binding model.

The target of experiment [2] is T2, recombinant human PSMA extracellular domain (ECD) protein (human, UniProt Q04609 44-750).
T2 construct: also called human PSMA ECD
The experiment in a line: SPR ProteOn.

Experiment [3] addresses T3, recombinant cynomolgous monkey PSMA extracellular domain (ECD) protein (Macaca fascicularis, UniProt Q04609 48-750 (human entry), biotin on the Avi tag).
T3 construct: also called cyno PSMA ECD; PSMG1
T3 chain: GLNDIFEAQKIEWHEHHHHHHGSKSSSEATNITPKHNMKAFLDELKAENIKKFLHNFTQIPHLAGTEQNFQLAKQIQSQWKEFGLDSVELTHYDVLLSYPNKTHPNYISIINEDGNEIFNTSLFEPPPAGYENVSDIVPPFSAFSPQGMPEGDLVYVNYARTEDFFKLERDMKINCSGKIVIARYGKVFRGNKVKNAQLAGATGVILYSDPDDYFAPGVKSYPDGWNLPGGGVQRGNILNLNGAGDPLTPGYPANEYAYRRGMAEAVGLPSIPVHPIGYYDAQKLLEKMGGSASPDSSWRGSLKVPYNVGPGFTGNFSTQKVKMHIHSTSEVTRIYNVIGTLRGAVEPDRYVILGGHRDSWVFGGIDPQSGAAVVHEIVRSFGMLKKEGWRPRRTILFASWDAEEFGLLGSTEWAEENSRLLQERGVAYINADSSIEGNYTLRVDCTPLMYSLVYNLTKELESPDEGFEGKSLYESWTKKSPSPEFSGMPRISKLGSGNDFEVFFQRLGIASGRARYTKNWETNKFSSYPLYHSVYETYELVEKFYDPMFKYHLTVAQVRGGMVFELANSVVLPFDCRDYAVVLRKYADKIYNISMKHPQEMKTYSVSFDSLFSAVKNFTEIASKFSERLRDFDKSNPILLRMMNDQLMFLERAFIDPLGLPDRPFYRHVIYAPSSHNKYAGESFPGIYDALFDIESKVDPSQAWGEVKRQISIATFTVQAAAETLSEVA
Put plainly: SPR ProteOn.

For experiment [4], the target named is T2, recombinant human PSMA extracellular …. Put plainly: SPR ProteOn. The source holds these as a separate data set.
Experiment [5] concerns the target T1, recombinant chimpanzee PSMA …. The experiment in a line: SPR ProteOn.
For experiment [6], the target named is T3, recombinant cynomolgous monkey PSMA …. The experiment in a line: SPR ProteOn.
Experiment [7] concerns the target T2, recombinant human PSMA extracellular …. The experiment in a line: SPR ProteOn, bsAb captured by anti-Fc.
For experiment [8], the target named is T3, recombinant cynomolgous monkey PSMA …. Put plainly: SPR ProteOn, bsAb captured by anti-Fc.

B1: PS3B27 (bispecific antibody, human IgG4 S228P, kappa, lambda, F234A L235A)
heavy 1: not shown
light 1: not shown
heavy 2: EVQLVESGGGLVQPGGSLRLSCAASGFTFNTYAMNWVRQAPGKGLEWVARIRSKYNNYATYYAASVKGRFTISRDDSKNSLYLQMNSLKTEDTAVYYCARHGNFGNSYVSWFAYWGQGTLVTVSSASTKGPSVFPLAPCSRSTSESTAALGCLVKDYFPEPVTVSWNSGALTSGVHTFPAVLQSSGLYSLSSVVTVPSSSLGTKTYTCNVDHKPSNTKVDKRVESKYGPPCPPCPAPEAAGGPSVFLFPPKPKDTLMISRTPEVTCVVVDVSQEDPEVQFNWYVDGVEVHNAKTKPREEQFNSTYRVVSVLTVLHQDWLNGKEYKCKVSNKGLPSSIEKTISKAKGQPREPQVYTLPPSQEEMTKNQVSLTCLVKGFYPSDIAVEWESNGQPENNYKTTPPVLDSDGSFLLYSKLTVDKSRWQEGNVFSCSVMHEALHNHYTQKSLSLSLGK
light 2: QTVVTQEPSLTVSPGGTVTLTCRSSTGAVTTSNYANWVQQKPGQAPRGLIGGTNKRAPGTPARFSGSLLGGKAALTLSGVQPEDEAEYYCALWYSNLWVFGGGTKLTVLGQPKAAPSVTLFPPSSEELQANKATLVCLISDFYPGAVTVAWKADSSPVKAGVETTTPSKQSNNKYAASSYLSLTPEQWKSHRSYSCQVTHEGSTVEKTVAPTECS
notes: IgG4 PAA; PSMA arm chains first, then CD3 arm (F405L, R409K); also called PSMB127 x CD3B219; PS2B27
By Kd is commonly meant a measure of binding affinity in units of concentration. As a reminder, the koff is the first-order rate constant of dissociation. A word on the kon: it is the rate constant with which the complex forms. As for B1, the Kd worked out at 7.48 nM in experiment [1]; 10.3 nM in experiment [2]; 7 nM in experiment [3]; 10.3 nM in experiment [4]; 7.48 nM in experiment [5]; 7 nM in experiment [6]. Besides, the Kd was determined as 10.3 nM in experiment [7] and 7 nM in experiment [8]. Also, the koff in experiment [1] worked out at 0.00156 s⁻¹; in experiment [4] it was 0.00289 s⁻¹; in experiment [5] it was 0.00156 s⁻¹; in experiment [6] it was 0.0011 s⁻¹; in experiment [7], 0.00289 s⁻¹; in experiment [8] it was 0.0011 s⁻¹. The kon turned out to be 208000 M⁻¹ s⁻¹ in experiment [1]; 287000 M⁻¹ s⁻¹ in experiment [4]; 208000 M⁻¹ s⁻¹ in experiment [5]; 159000 M⁻¹ s⁻¹ in experiment [6]; 287000 M⁻¹ s⁻¹ in experiment [7]; 159000 M⁻¹ s⁻¹ in experiment [8].

B2: PS3B25 (bispecific antibody, human IgG4 S228P, kappa, lambda, F234A L235A)
heavy 1: not shown
light 1: not shown
heavy 2: EVQLVESGGGLVQPGGSLRLSCAASGFTFNTYAMNWVRQAPGKGLEWVARIRSKYNNYATYYAASVKGRFTISRDDSKNSLYLQMNSLKTEDTAVYYCARHGNFGNSYVSWFAYWGQGTLVTVSSASTKGPSVFPLAPCSRSTSESTAALGCLVKDYFPEPVTVSWNSGALTSGVHTFPAVLQSSGLYSLSSVVTVPSSSLGTKTYTCNVDHKPSNTKVDKRVESKYGPPCPPCPAPEAAGGPSVFLFPPKPKDTLMISRTPEVTCVVVDVSQEDPEVQFNWYVDGVEVHNAKTKPREEQFNSTYRVVSVLTVLHQDWLNGKEYKCKVSNKGLPSSIEKTISKAKGQPREPQVYTLPPSQEEMTKNQVSLTCLVKGFYPSDIAVEWESNGQPENNYKTTPPVLDSDGSFLLYSKLTVDKSRWQEGNVFSCSVMHEALHNHYTQKSLSLSLGK
light 2: QTVVTQEPSLTVSPGGTVTLTCRSSTGAVTTSNYANWVQQKPGQAPRGLIGGTNKRAPGTPARFSGSLLGGKAALTLSGVQPEDEAEYYCALWYSNLWVFGGGTKLTVLGQPKAAPSVTLFPPSSEELQANKATLVCLISDFYPGAVTVAWKADSSPVKAGVETTTPSKQSNNKYAASSYLSLTPEQWKSHRSYSCQVTHEGSTVEKTVAPTECS
notes: IgG4 PAA; also called PSMB87 x CD3B219
On to B2, for which the Kd in experiment [1] was 3.54 nM; in experiment [2] it was 5.38 nM; in experiment [3] it was 81.1 nM; in experiment [4], 5.38 nM; in experiment [5] it was 3.54 nM; in experiment [6] it was 81.1 nM. For the same molecule, the Kd amounted to 5.38 nM in experiment [7] and 81.1 nM in experiment [8]. Besides, the koff in experiment [1] worked out at 0.00099 s⁻¹; in experiment [4], 0.00101 s⁻¹; in experiment [5], 0.00099 s⁻¹; in experiment [6], 0.00797 s⁻¹; in experiment [7] it was 0.00101 s⁻¹; in experiment [8], 0.00797 s⁻¹. Besides, the kon was found to be 281000 M⁻¹ s⁻¹ in experiment [1]; 188000 M⁻¹ s⁻¹ in experiment [4]; 281000 M⁻¹ s⁻¹ in experiment [5]; 98000 M⁻¹ s⁻¹ in experiment [6]; 188000 M⁻¹ s⁻¹ in experiment [7]; 98000 M⁻¹ s⁻¹ in experiment [8].
